The record followed here is PMC5346138, “High-affinity RNA binding by a hyperthermophilic single-stranded DNA-binding protein”.

Positions count from the first letter of the chain named. Names and notes keep the numbering of the source.

For data set [1], the target named is T1, SsoSSB (single-stranded DNA-binding protein) (Sulfolobus solfataricus, UniProt Q97W73 1-148).
T1 sequence: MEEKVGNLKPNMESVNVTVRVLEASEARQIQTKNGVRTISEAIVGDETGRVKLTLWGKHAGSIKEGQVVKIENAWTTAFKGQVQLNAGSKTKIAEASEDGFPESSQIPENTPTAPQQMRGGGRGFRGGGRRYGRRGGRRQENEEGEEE
The data set can be described thus: ITC; apparent Kd, 50 C; text says 21U, Fig. 1 legend says poly-rA; ITC: 20 mM MES pH 6.5, 100 mM K-glutamate, 1 mM MgCl2, 50 C; PIFE: 50 mM Tris-HCl pH 8.0, 10 mM KCl; smFRET: same buffer plus Trolox and oxygen scavenger, room. To be noted: protein: recombinant. (In general: In ITC the heat of successive injections is recorded.)

Data set [2] deals with T1, SsoSSB (single-stranded DNA-binding …). The data set is described as follows: fluorescence (PIFE); ~0.7 nM RNA; Hill 1.7 +/- 0.2; ITC: 20 mM MES pH 6.5, 100 mM K-glutamate, 1 mM MgCl2, 50 C; PIFE: 50 mM Tris-HCl pH 8.0, 10 mM KCl; smFRET: same buffer plus Trolox and oxygen scavenger, room. To be noted: protein: recombinant, label: 5' biotin, 3' Cy3.
For data set [3] the target is unchanged. The data set is described as follows: fluorescence (PIFE); 10 nM RNA, 10 mM KCl; Hill 1.8 +/- 0.3; ITC: 20 mM MES pH 6.5, 100 mM K-glutamate, 1 mM MgCl2, 50 C; PIFE: 50 mM Tris-HCl pH 8.0, 10 mM KCl; smFRET: same buffer plus Trolox and oxygen scavenger, room. To be noted: protein: recombinant, label: 5' biotin, 3' Cy3.
For data set [4], the target named is T2, SsoSSB A114C-Alexa Fluor 647 (Sulfolobus solfataricus, UniProt Q97W73 1-148, A114C).
T2 sequence: T1 sequence with A114C
The data set is described as follows: single-molecule FRET; 1-2 nM protein; dissociation 6 +/- 1 s-1, association 0.12 +/- 0.08 s-1; ITC: 20 mM MES pH 6.5, 100 mM K-glutamate, 1 mM MgCl2, 50 C; PIFE: 50 mM Tris-HCl pH 8.0, 10 mM KCl; smFRET: same buffer plus Trolox and oxygen scavenger, room. To be noted: protein: recombinant; tags: Alexa Fluor 647 label; label: 5' biotin, 3' Cy3; single-stranded.

Data set [5] deals with T3, SsoSSB OB domain (15N) (Sulfolobus solfataricus, UniProt Q97W73 1-114).
T3 sequence: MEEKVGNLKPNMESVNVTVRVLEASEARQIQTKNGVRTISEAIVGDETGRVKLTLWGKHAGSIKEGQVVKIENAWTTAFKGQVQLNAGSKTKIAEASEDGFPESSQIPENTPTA
The data set is described as follows: NMR HSQC; 1:1, 298 K; 2MNA is an earlier structure; ITC: 20 mM MES pH 6.5, 100 mM K-glutamate, 1 mM MgCl2, 50 C; PIFE: 50 mM Tris-HCl pH 8.0, 10 mM KCl; smFRET: same buffer plus Trolox and oxygen scavenger, room. To be noted: protein: recombinant; single-stranded.

In data set [6] the target is T1, SsoSSB (single-stranded DNA-binding …). The data set can be described thus: ITC; apparent Kd, 50 C; text says 21T, Fig. 1 legend says poly-A DNA; ITC: 20 mM MES pH 6.5, 100 mM K-glutamate, 1 mM MgCl2, 50 C; PIFE: 50 mM Tris-HCl pH 8.0, 10 mM KCl; smFRET: same buffer plus Trolox and oxygen scavenger, room. To be noted: protein: recombinant.
Data set [7] addresses T3, SsoSSB OB domain (15N). The data set can be described thus: NMR HSQC; 1:1, 298 K; the RNA complex is only a HADDOCK model; ITC: 20 mM MES pH 6.5, 100 mM K-glutamate, 1 mM MgCl2, 50 C; PIFE: 50 mM Tris-HCl pH 8.0, 10 mM KCl; smFRET: same buffer plus Trolox and oxygen scavenger, room. To be noted: protein: recombinant; single-stranded.
Data set [8] concerns the target T1, SsoSSB (single-stranded DNA-binding …). The data set can be described thus: FRET hairpin melting; hairpin disrupted at 20 nM SsoSSB; ITC: 20 mM MES pH 6.5, 100 mM K-glutamate, 1 mM MgCl2, 50 C; PIFE: 50 mM Tris-HCl pH 8.0, 10 mM KCl; smFRET: same buffer plus Trolox and oxygen scavenger, room. To be noted: protein: recombinant; label: 5' Cy5, 3' Cy3; hairpin with single-nucleotide bulge.

Data set [9] has the same target. The data set is described as follows: fluorescence (PIFE); 10 nM DNA, 10 mM KCl; Hill 1.6 +/- 0.5; ITC: 20 mM MES pH 6.5, 100 mM K-glutamate, 1 mM MgCl2, 50 C; PIFE: 50 mM Tris-HCl pH 8.0, 10 mM KCl; smFRET: same buffer plus Trolox and oxygen scavenger, room. To be noted: protein: recombinant, label: 5' biotin, 3' Cy3.
The target in data set [10] is T2, SsoSSB A114C-Alexa Fluor 647. The data set is described as follows: single-molecule FRET; 1-2 nM protein; dissociation 3.8 +/- 0.8 s-1, association 0.06 +/- 0.01 s-1; ITC: 20 mM MES pH 6.5, 100 mM K-glutamate, 1 mM MgCl2, 50 C; PIFE: 50 mM Tris-HCl pH 8.0, 10 mM KCl; smFRET: same buffer plus Trolox and oxygen scavenger, room. To be noted: protein: recombinant; tags: Alexa Fluor 647 label; chain copies: 2; label: 5' biotin, 3' Cy3; single-stranded.

Take UUUUUUUUUUUUUUUUUUUUU (ssRNA) [R21U (21U RNA)]: the Kd in data set [1] turned out to be 93 ± 0.4 nM.
Take CCCCCCCCCCCC (ssRNA) [C12ssRNA]: the Kd in data set [2] is 6 ± 1 nM; in data set [3] it was 4.2 ± 0.6 nM. In addition, the binding result in data set [4] is “binds”.
For TTTTTT (ssDNA) [6T ssDNA], the binding result with SsoSSB OB domain (15N) [5] is “binds”.
As for TTTTTTTTTTTTTTTTTTTTT (ssDNA) [21T DNA], the Kd in [6] was 95 ± 0.6 nM.
Take UUUUUU (ssRNA) [6U RNA]: the binding result in the data set with SsoSSB OB domain (15N) [7] is “binds”.
In the case of UGAUAAUCUCUUAUAGAAUUGAAAGU (structured_RNA) [RNA Hairpin], in [8], the binding result is “binds”.
As to CCCCCCCCCCCC (ssDNA) [C12ssDNA], in data set [9], the Kd amounted to 8.2 ± 0.9 nM. In addition, the binding result in data set [10] is “binds”.
